Data from US20240343802A1.

Target: CD3 on CD3-expressing T cells (Jurkat, HPB-ALL) (UniProt P07766)
Experiment: FACS, HBP-ALL T cells
Set-up: Bmax: unit not given here

For OKT3 (commercial anti-CD3 antibody), the Bmax was 13300 and the Kd was 0.461 nM.
